± gives the standard deviation of the averaged measurements.
Test system: Saccharomyces cerevisiae
Test: protein stability index of tFT-peptide fusion (C-terminal peptide) (PSI (0-1 scale)); higher = more stable (slower turnover)
Details: genetic background: wild type; temperature: 30 C
Procedure: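 Multiplexed protein stability (MPS) profiling in S. cerevisiae. Random 12-aa peptides (tFT-X12 library) are fused to the C-terminus of a sfGFP-mCherry tandem fluorescent timer, after mCherry and a GGGS linker. Cells are FACS-sorted into 8 mCherry/sfGFP bins and deep-sequenced. The protein stability index (PSI) is the read-weighted bin average, scaled from 0 (unstable) to 1 (stable). Only peptides with >10 reads are reported; cells were grown at 30 °C in SC-His with glucose.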
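Further: PSI is a weighted mean of sequencing reads over stability bins, variants kept only with over 10 reads, mCherry proximal and sfGFP distal, peptide attached via GGGS linker.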

Row | Sequence | protein stability index
1 | RHHRACLNTRLG | 0.671 ± 0.065
2 | NDKPKKKYRKTR | 0.64 ± 0.018
3 | SPPSPSPSPRPL | 0.669 ± 0.03
4 | KIKQKEITEKNR | 0.638 ± 0.038
5 | HPRPPAASSRTR | 0.707 ± 0.044
6 | PPPPTPPPHSPP | 0.656 ± 0.022
7 | RGLSGSHRAGIV | 0.69334 ± 0.00034
8 | TPSPTRCPTPTR | 0.6 ± 0.025
9 | KKKKKVKITGKK | 0.766 ± 0.018
10 | QEIRKEILLIKS | 0.6 ± 0.098
11 | FPFTLSPTLFHS | 0.714 ± 0.08
12 | RGPPMPGRRGRA | 0.7 ± 0.052
13 | LFLPPLFRRSPF | 0.684 ± 0.018
14 | GGWGSRGRVGDI | 0.744 ± 0.045
15 | SSVILPLRRWPP | 0.648 ± 0.094
16 | LRRKTIEVSGLA | 0.573 ± 0.026
17 | VNIHVCSYGIFA | 0.5071 ± 0.0025
18 | QTQNEENKKQKY | 0.612 ± 0.13
19 | NIKHTDKPNHIN | 0.609 ± 0.011
20 | DLGPLFVSWSTW | 0.778 ± 0.021
21 | CFPALSGVQGGM | 0.706 ± 0.082
22 | WLVGGGTVAHSP | 0.77 ± 0.088
23 | VSRRCVALRVGN | 0.579 ± 0.017
24 | DASCAPAQYLPI | 0.673 ± 0.025
25 | PLPPLSSPRPPP | 0.711 ± 0.071

Row | Sequence | protein stability index
26 | DERVSAQDFLEG | 0.6873 ± 0.003
27 | GGRVCGGRVEGQ | 0.684 ± 0.007
28 | INKWNKRDGLFQ | 0.66 ± 0.03
29 | GCRGRCVMPVCG | 0.634 ± 0.051
30 | FPPIHIHSPCYP | 0.765 ± 0.021
31 | RQEKITQHRARI | 0.689 ± 0.024
32 | EKVASLVTIFDM | 0.695 ± 0.024
33 | RRMAGEPKCGRS | 0.699 ± 0.015
34 | WCGQVFWCVKES | 0.699 ± 0.039
35 | FYVCVIQNMYML | 0.579 ± 0.043
36 | RGVTEYDSGSSL | 0.647 ± 0.045
37 | GGFGVLGLGVVG | 0.6963 ± 0.0058
38 | VFFCHFRFTPPS | 0.692 ± 0.059
39 | LALGICRLSSAG | 0.7599 ± 0.005
40 | IDPVVFCEYTHA | 0.688 ± 0.011
41 | VEQISYATIAFV | 0.608 ± 0.061
42 | VSPTRSRPSSPA | 0.692 ± 0.055
43 | ISMPECDIVEEI | 0.707 ± 0.022
44 | SRGGGWSEGGEG | 0.716 ± 0.028
45 | DRRVSYKKKKRK | 0.672 ± 0.14
46 | IPSKHKPSRIPI | 0.665 ± 0.014
47 | GPSCSGLHAPTS | 0.831 ± 0.1
48 | VRARRSSREVNY | 0.755 ± 0.05
49 | SYGADSVSYLKT | 0.651 ± 0.033
50 | LLPSPRSSPPPS | 0.675 ± 0.091

Row | Sequence | protein stability index
51 | HRLSFPTQNIRG | 0.677 ± 0.019
52 | AGLRRLRDFGSN | 0.726 ± 0.037
53 | PPSPCRTHRLYI | 0.629 ± 0.022
54 | EASGPGPGAKAT | 0.6526 ± 0.0026
55 | TYQNAKAEPTRV | 0.671 ± 0.038
56 | VRSILEGRRGEK | 0.709 ± 0.032
57 | LLSLLQLPASAS | 0.605 ± 0.03
58 | KQKKNEENTKKT | 0.735 ± 0.064
59 | QPRLLGPDRIDL | 0.662 ± 0.036
60 | VPVVQPNRSALI | 0.7454 ± 0.0071
61 | RRVPVVSRAGGG | 0.697 ± 0.067
62 | SDQPTWTAQTSN | 0.783 ± 0.025
63 | NFDNGAGLNRGG | 0.6733 ± 0.0059
64 | GGTGGRRGVGHV | 0.655 ± 0.022
65 | PCVPSRTISLPE | 0.684 ± 0.031
66 | PAVRGEMYLGVG | 0.685 ± 0.014
67 | PYFHRRMSLESF | 0.703 ± 0.013
68 | SGRGGTGIGERV | 0.6694 ± 0.00092
69 | IVRMLTCGVGWD | 0.581 ± 0.016
70 | LFFLFSPFSRLP | 0.786 ± 0.089
71 | ELVGRRAFRASR | 0.693 ± 0.12
72 | LAGGMTSRTVSI | 0.716 ± 0.0073
73 | LSSLLPFPPLPC | 0.685 ± 0.082
74 | GGLVVGCGGMWV | 0.609 ± 0.0075
75 | VGCGCVRGYWFG | 0.734 ± 0.018

Row | Sequence | protein stability index
76 | SGEEVRSVARFF | 0.629 ± 0.035
77 | FLLSARGVIVFW | 0.544 ± 0.018
78 | CVLGVGVPAGGG | 0.634 ± 0.032
79 | PPLPPSLPGSSL | 0.642 ± 0.053
80 | CLFWWDASTILP | 0.68 ± 0.13
81 | GGRRGCFARWAR | 0.697 ± 0.046
82 | WIFPPLPPPLPR | 0.7174 ± 0.0037
83 | PPPPDLPYPLPL | 0.754 ± 0.025
84 | GVLDTRWIIIST | 0.53 ± 0.029
85 | GWNCTAFRTLHI | 0.662 ± 0.061
86 | LASPPFPRPPPP | 0.57 ± 0.12
87 | GYNCKWGRTNVT | 0.6782 ± 0.0024
88 | WGGCNTALLTIL | 0.581 ± 0.018
89 | PHYPQSHPADPV | 0.668 ± 0.016
90 | LSTHAPPTRLRL | 0.677 ± 0.016
91 | PPPLAPPTSLRF | 0.715 ± 0.075
92 | GELCGHSRALHG | 0.676 ± 0.071
93 | EYRRADYCLGVG | 0.547 ± 0.011
94 | SAHPFLPLFSPP | 0.718 ± 0.012
95 | VFSTRLTSWYLT | 0.555 ± 0.01
96 | TRKRIKKHSMNK | 0.672 ± 0.085
97 | TYLSSPAPLLPL | 0.694 ± 0.033
98 | LRFRTNYFFSRV | 0.665 ± 0.063
99 | FYKKKIRRGVNV | 0.661 ± 0.038
100 | LGVMLLEGWRVM | 0.656 ± 0.018

Row | Sequence | protein stability index
101 | PRSAMTRHSSCR | 0.65 ± 0.017
102 | GIVGCDFLLFYF | 0.698 ± 0.018
103 | GDSSSCSSYVYL | 0.651 ± 0.026
104 | LISFSGFSPFLW | 0.7678 ± 0.0027
105 | FVRCLFSSGCFF | 0.728 ± 0.013
106 | RLPAFSSDLLRH | 0.704 ± 0.046
107 | LTSATSSGPPHP | 0.7232 ± 0.0029
108 | GDSGVWGPMGLW | 0.732 ± 0.033
109 | SAPLVSLHLSPL | 0.68 ± 0.011
110 | WGGVGLWGGWDG | 0.723 ± 0.058
111 | SDKVKRYISTTL | 0.637 ± 0.023
112 | KRIDLDCSVAAD | 0.643 ± 0.022
113 | PPPPPLPHPVPP | 0.6206 ± 0.005
114 | RNKSRMWKEIIR | 0.657 ± 0.069
115 | PRRLCLLPLLSP | 0.662 ± 0.022
116 | SRDSRSSRRAGA | 0.702 ± 0.065
117 | PYSHFVFGLCEL | 0.75 ± 0.096
118 | ESVGLGDRRVCS | 0.65 ± 0.024
119 | VFSFFNFCFCFY | 0.615 ± 0.06
120 | REGGEIGDQEGT | 0.674 ± 0.069
121 | CLGGRRVCRCKG | 0.631 ± 0.054
122 | TLGLDPCCSYSR | 0.752 ± 0.15
123 | RFGCGRRGQWMR | 0.722 ± 0.06
124 | RHYGRSLRLIKT | 0.59 ± 0.011
125 | GPVQSISMTVGH | 0.6548 ± 0.0025

Row | Sequence | protein stability index
126 | GPRTPPKPRQVP | 0.616 ± 0.024
127 | RHRGVYMDRGCL | 0.663 ± 0.053
128 | GACPAFPYSVGR | 0.595 ± 0.018
129 | SRDRRASPPLPP | 0.722 ± 0.049
130 | FRLILGCPFACL | 0.576 ± 0.034
131 | GVFAGGLWCVGF | 0.657 ± 0.087
132 | IVFVLRPRRSRC | 0.65 ± 0.04
133 | PPPPLPAPLSPA | 0.651 ± 0.021
134 | VECVPFAPPRPH | 0.68 ± 0.14
135 | RIRTLASRRLEG | 0.709 ± 0.1
136 | HIHHVPGPHITA | 0.706 ± 0.0088
137 | NGRTSRVMKDRK | 0.6793 ± 0.0035
138 | PPSPPPPRPSFP | 0.713 ± 0.0096
139 | PLLPSFPPPPAP | 0.51 ± 0.014
140 | SRPALLLGSEAT | 0.642 ± 0.031
141 | ISEINQKGKNRE | 0.675 ± 0.037
142 | SMSPAGARCLPR | 0.782 ± 0.05
143 | GEVVGRCGAWVC | 0.611 ± 0.033
144 | LPSLSPPPSLPL | 0.763 ± 0.042
145 | FGVSFFSGVNGV | 0.681 ± 0.011
146 | DRPWAGGGLGVC | 0.621 ± 0.081
147 | GSSTINRVDLKR | 0.662 ± 0.015
148 | NHIASQASRRGR | 0.637 ± 0.069
149 | NHPCPFSELPQL | 0.758 ± 0.11
150 | VVSGIFQVLATC | 0.614 ± 0.084

Row | Sequence | protein stability index
151 | FFITFGFSSGSR | 0.675 ± 0.068
152 | MWVGLWSVGLCG | 0.717 ± 0.011
153 | LRPLPSPPPSLH | 0.603 ± 0.0066
154 | KNKREKKKENTK | 0.682 ± 0.0078
155 | SPRPSPPPPSHA | 0.636 ± 0.077
156 | RFGLIFTSPHPL | 0.63 ± 0.013
157 | TGCRAVPDLNAD | 0.695 ± 0.018
158 | VVVGPVTKRGGH | 0.68 ± 0.046
159 | KVCIRFSCKIHM | 0.6396 ± 0.0021
160 | CHTESKLKRKKW | 0.645 ± 0.028
161 | LLCFGGRGPLAD | 0.713 ± 0.028
162 | SCIFRGNPFLLL | 0.711 ± 0.018
163 | LPVLPPLSPSPF | 0.665 ± 0.011
164 | PGTVQVGFDIQV | 0.717 ± 0.018
165 | MYTNYLYDVAVE | 0.597 ± 0.044
166 | RFGHLLRFSWLL | 0.6477 ± 0.0057
167 | LVHHPCNTPRVP | 0.749 ± 0.018
168 | KQKKKIKIQNKT | 0.689 ± 0.12
169 | LPRAAISRKFAT | 0.63 ± 0.037
170 | AAARTGIATLRT | 0.691 ± 0.01
171 | LLSPAPPLPPAP | 0.666 ± 0.057
172 | PLPLPLPQTLPP | 0.6958 ± 0.0067
173 | PTRPSRPPRPPP | 0.598 ± 0.026
174 | PPLRQLTIPLTH | 0.723 ± 0.0088
175 | HVRLSCTRGMVI | 0.695 ± 0.015

Row | Sequence | protein stability index
176 | PSPLPTALLTNR | 0.644 ± 0.14
177 | RTAGQRLIRVNR | 0.744 ± 0.075
178 | KNTKRQIKKNKK | 0.662 ± 0.17
179 | SLICPPFWPPSF | 0.691 ± 0.044
180 | GPLATACPPALT | 0.701 ± 0.046
181 | GVFGGAGCGVVL | 0.724 ± 0.022
182 | SLDALVDFWSRG | 0.737 ± 0.066
183 | HGVVGVFGLVSG | 0.664 ± 0.0075
184 | KEKGSRYKRALS | 0.679 ± 0.014
185 | GYNARHILGRVG | 0.699 ± 0.011
186 | PPPGCRPSPPLP | 0.683 ± 0.069
187 | PAVARPLGPPPY | 0.714 ± 0.045
188 | AFFLDKASQLES | 0.694 ± 0.05
189 | PPPTRPSQAPHL | 0.645 ± 0.11
190 | GFYEVLRNMFVI | 0.589 ± 0.035
191 | GPRPHVLPLAYF | 0.675 ± 0.024
192 | SRNAFTLAARVY | 0.589 ± 0.016
193 | LPATLPPPPAPP | 0.705 ± 0.036
194 | LSSRSDVLTYFV | 0.639 ± 0.022
195 | ALSPPPSLRLPF | 0.7388 ± 0.0023
196 | HTGPTRPGHPLP | 0.703 ± 0.03

Reference: the supplement of paper PMC10724198
